Data as given in patent publication US20090047285A1 (ONCOMED PHARMACEUTICALS, published 2009).
Where a chain is given by its changes, count along the chain named.

T1: mNotch3(EGF9-14)Fc (mouse, UniProt Q61982 352-581)
T1 construct: domain: EGF9-14; also called murine Notch3; selected antigen; not shown: Fc
T1 sequence (looked up): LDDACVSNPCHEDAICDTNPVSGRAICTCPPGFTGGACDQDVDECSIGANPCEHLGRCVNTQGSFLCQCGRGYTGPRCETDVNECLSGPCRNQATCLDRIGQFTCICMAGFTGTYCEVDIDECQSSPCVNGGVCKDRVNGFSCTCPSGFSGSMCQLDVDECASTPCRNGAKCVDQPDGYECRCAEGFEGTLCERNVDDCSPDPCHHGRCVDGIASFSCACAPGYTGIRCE

T2: hNotch3 glutamate ligand binding region protein (EGF10-15 as printed), immobilized on a CM5 chip (human, UniProt Q9UM47 351-580)
T2 construct: domain: EGF10-15; For Notch3 the equivalent repeats would be EGF9-14
T2 sequence (looked up): T1 sequence (looked up) with S22N, M153T, E193D, I227T

T3: mNotch1 glutamate ligand binding region protein (EGF10-15), immobilized on a CM5 chip (mouse, UniProt Q01705 375-601)
T3 construct: domain: EGF10-15
T3 sequence (looked up): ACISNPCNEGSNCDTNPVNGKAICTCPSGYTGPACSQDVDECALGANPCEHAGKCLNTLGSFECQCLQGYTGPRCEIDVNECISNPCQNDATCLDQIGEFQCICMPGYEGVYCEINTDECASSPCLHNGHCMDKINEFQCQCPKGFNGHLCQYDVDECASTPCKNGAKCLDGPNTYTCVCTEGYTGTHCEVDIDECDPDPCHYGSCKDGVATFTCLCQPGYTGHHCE

B1: 122R5 (Fab, V domains shown)
VH: QVQLVESGGGLVQPGGSLRLSCAASGFTFSDNAIHWVRQAPGKGLEWVSAISSYGSGTYYADSVKGRFTISRDNSKNTLYLQMNSLRAEDTAVYYCARPGFQFSFTFMDIWGQGTLVTVSS
VL: DIELTQPPSVSVAPGQTARISCSGDALGSKYASWYQQKPGQAPVLVIYDDKNRPSGIPERFSGSNSGNTATLTISGTQAEDEADYYCQSWDGKSKVVFGGGTKLTVLG
notes: Human fAb from phage display; also called fAb122R5; lead fAb, 122R5
B2: 90R21 (antibody, V domains shown)
VH: EVQLLESGGGLVQPGGSLRLSCAASGFTFSNYGMSWVRQAPGKGLEWVSSISGYGSNTYYADSVKGRFTISRDNSKNTLYLQMNSLRAEDTAVYYCARISQQAVWGQGTLVTVSS
VL: QSALTQPASVSGSPGQSITISCTGTSSDIGGYQYVSWYQQHPGKAPKLMIYYVSNRPSGVSNRFSGSKSGNTASLTISGLQAEDEADYYCQSADSSSWVFGGGTKLTVLG
notes: also called ATCC deposit No. PTA-8909

What was measured:
[1] = target: T4, full length Notch1 E424Q, expressed on HEK 293 cells (human, UniProt P46531 19-2555); test: FACS on transfected HEK 293 cells (FIG. 5)
T4 construct: whole, on cells; also called mutated receptor (E424Q)
T4 sequence (P46531 19-2555 E424Q): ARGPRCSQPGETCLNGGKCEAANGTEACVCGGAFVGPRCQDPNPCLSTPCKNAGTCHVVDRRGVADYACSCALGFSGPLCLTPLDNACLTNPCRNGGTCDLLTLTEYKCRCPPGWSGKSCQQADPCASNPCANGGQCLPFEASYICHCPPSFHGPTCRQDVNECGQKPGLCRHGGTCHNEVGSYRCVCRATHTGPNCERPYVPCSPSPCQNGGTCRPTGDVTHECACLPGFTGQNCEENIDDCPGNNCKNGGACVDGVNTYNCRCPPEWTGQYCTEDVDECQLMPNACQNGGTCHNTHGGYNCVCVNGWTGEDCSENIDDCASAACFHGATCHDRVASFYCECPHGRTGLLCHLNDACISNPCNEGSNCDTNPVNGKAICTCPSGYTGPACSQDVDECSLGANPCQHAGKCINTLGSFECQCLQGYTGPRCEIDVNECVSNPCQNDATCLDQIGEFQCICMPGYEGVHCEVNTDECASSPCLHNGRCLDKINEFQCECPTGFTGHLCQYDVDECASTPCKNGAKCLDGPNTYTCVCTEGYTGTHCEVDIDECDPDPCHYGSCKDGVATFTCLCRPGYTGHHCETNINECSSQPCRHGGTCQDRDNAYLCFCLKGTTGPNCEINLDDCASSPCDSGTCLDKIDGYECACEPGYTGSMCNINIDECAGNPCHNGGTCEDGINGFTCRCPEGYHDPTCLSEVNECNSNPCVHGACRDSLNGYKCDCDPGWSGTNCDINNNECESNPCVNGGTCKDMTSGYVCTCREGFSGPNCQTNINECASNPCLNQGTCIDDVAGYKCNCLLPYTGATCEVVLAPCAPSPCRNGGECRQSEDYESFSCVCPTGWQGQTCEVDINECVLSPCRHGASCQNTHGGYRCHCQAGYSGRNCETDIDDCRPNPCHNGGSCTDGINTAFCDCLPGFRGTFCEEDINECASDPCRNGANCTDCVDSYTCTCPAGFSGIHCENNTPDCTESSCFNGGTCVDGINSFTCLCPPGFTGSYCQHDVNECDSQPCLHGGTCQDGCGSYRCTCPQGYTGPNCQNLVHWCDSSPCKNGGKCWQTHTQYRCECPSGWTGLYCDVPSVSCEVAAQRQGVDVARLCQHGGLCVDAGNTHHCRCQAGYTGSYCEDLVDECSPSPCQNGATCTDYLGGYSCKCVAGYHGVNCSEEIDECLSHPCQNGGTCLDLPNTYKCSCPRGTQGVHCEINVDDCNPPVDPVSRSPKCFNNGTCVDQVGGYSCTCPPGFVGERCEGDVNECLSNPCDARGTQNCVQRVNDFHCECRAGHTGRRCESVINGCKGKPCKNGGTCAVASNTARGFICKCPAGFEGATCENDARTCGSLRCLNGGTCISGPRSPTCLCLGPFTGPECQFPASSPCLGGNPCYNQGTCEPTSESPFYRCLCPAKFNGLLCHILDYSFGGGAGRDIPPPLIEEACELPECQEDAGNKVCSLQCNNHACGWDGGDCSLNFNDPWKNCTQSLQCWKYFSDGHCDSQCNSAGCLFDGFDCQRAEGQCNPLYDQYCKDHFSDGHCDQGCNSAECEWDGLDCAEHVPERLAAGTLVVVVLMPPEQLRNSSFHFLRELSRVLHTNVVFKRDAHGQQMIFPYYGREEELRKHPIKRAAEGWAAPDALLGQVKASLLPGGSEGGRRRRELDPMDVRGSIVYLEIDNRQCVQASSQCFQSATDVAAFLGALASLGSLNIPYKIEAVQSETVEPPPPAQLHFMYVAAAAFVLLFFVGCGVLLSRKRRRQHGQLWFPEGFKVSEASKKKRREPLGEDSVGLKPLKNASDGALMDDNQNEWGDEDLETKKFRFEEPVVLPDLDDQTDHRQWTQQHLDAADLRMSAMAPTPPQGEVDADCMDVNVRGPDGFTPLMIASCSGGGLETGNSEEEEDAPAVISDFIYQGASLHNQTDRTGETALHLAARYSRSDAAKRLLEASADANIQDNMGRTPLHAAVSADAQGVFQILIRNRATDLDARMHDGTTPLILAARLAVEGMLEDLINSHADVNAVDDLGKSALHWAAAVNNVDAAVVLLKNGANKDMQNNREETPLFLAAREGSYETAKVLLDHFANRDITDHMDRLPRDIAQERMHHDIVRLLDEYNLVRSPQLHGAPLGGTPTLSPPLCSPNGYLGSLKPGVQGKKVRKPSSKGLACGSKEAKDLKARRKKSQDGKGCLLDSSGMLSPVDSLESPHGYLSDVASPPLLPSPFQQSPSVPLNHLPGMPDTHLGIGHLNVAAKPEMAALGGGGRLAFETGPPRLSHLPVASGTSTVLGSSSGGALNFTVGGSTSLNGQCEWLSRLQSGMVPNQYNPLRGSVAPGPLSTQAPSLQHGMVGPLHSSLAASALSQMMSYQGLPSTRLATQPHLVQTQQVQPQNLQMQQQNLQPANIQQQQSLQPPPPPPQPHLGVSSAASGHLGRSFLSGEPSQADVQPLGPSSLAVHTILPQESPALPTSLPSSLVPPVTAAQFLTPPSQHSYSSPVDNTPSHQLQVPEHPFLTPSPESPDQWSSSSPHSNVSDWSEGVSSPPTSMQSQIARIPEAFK

[2] = target: T1, mNotch3(EGF9-14)Fc; test: survey of fAbs after phage display selection on mNotch3(EGF9-14)Fc
[3] = target: T5, hNotch1 glutamate ligand binding region protein (EGF10-15), immobilized on a CM5 chip (human, UniProt P46531 375-601); test: Biacore 2000, Notch EGF10-15 protein on CM5 chip, antibody 25 to 0.20 nM
T5 construct: domain: EGF10-15
Protocol: (§1) The KD's of certain anti-Notch glutamate ligand binding region antibodies were determined using the Biacore 2000 system from Biacore Lifesciencse (GE Healthcare). Specifically, purified anti-Notch glutamate ligand binding region antibodies were serially diluted in 2-fold increments from 25 to 0.20 nM in PBS with HBS-P (0.01 M HEPES pH 7.4, 0.15 M NaCl, 0.005% v/v Surfactant P20). Each dilution was tested against Notch glutamate ligand binding region proteins (EGF10-15) immobilized onto a CM5 Biacore chip. The association and dissociation rates were measured and KD values determined using the Biaevaluation software program. NB in the table below means a binding affinity as measured by a KD that is at least ten-fold weaker than the notch-ligand (delta-like ligand) affinity constant.

[4] = target: T2, hNotch3 glutamate ligand binding region …; test: Biacore 2000, Notch ligand binding region protein on CM5 chip, antibody 25 to 0.20 nM
Protocol: as §1

[5] = target: T3, mNotch1 glutamate ligand binding region …; test: Biacore 2000, Notch EGF10-15 protein on CM5 chip, antibody 25 to 0.20 nM
Protocol: as §1

| Binder | binding result [1] | binding result [2] | Kd [3] | Kd [4] | Kd [5] |
| --- | --- | --- | --- | --- | --- |
| B1 | no binding | binds | 4.25 nM | < 0.1 nM | – |
| B2 | – | – | < 0.1 nM | – | 0.25 nM |
